# B1: 2K2A (parent)
# chain: ELREAFRLYDKEGNGYISTDVMREILAELDETLSSEDLDAMIDEIDADGSGTVDFEEFMGVMT
# Variants of: B1
# Assay: folding stability dG (cDNA display proteolysis); higher = more stable
# Details: PBS, room temperature
row,Variant,folding stability dG
1,ELREAFRLYDFEGNGYISTDVMREILAELDETLSSEDLDAMIDEIDADGSGTVDFEEFMGVMT [K11F],1.82 kcal/mol
2,ELREAFRLYDCEGNGYISTDVMREILAELDETLSSEDLDAMIDEIDADGSGTVDFEEFMGVMT [K11C],2.07 kcal/mol
3,ELREAFRLYDLEGNGYISTDVMREILAELDETLSSEDLDAMIDEIDADGSGTVDFEEFMGVMT [K11L],2.13 kcal/mol
4,ELREAFRLYDQEGNGYISTDVMREILAELDETLSSEDLDAMIDEIDADGSGTVDFEEFMGVMT [K11Q],1.72 kcal/mol
5,ELREAFRLYDPEGNGYISTDVMREILAELDETLSSEDLDAMIDEIDADGSGTVDFEEFMGVMT [K11P],1.81 kcal/mol
6,ELREAFRLYDSEGNGYISTDVMREILAELDETLSSEDLDAMIDEIDADGSGTVDFEEFMGVMT [K11S],1.74 kcal/mol
7,ELREAFRLYDWEGNGYISTDVMREILAELDETLSSEDLDAMIDEIDADGSGTVDFEEFMGVMT [K11W],1.88 kcal/mol
8,ELREAFRLYDAEGNGYISTDVMREILAELDETLSSEDLDAMIDEIDADGSGTVDFEEFMGVMT [K11A],1.74 kcal/mol
9,ELREAFRLYDIEGNGYISTDVMREILAELDETLSSEDLDAMIDEIDADGSGTVDFEEFMGVMT [K11I],2.01 kcal/mol
10,ELREAFRLYDEEGNGYISTDVMREILAELDETLSSEDLDAMIDEIDADGSGTVDFEEFMGVMT [K11E],1.36 kcal/mol
11,ELREAFRLYDHEGNGYISTDVMREILAELDETLSSEDLDAMIDEIDADGSGTVDFEEFMGVMT [K11H],1.69 kcal/mol
12,ELREAFRLYDREGNGYISTDVMREILAELDETLSSEDLDAMIDEIDADGSGTVDFEEFMGVMT [K11R],1.71 kcal/mol
13,ELREAFRLYDNEGNGYISTDVMREILAELDETLSSEDLDAMIDEIDADGSGTVDFEEFMGVMT [K11N],1.4 kcal/mol
14,ELREAFRLYDDEGNGYISTDVMREILAELDETLSSEDLDAMIDEIDADGSGTVDFEEFMGVMT [K11D],0.997 kcal/mol
15,ELREAFRLYDYEGNGYISTDVMREILAELDETLSSEDLDAMIDEIDADGSGTVDFEEFMGVMT [K11Y],1.63 kcal/mol
16,ELREAFRLYDGEGNGYISTDVMREILAELDETLSSEDLDAMIDEIDADGSGTVDFEEFMGVMT [K11G],1.03 kcal/mol
17,ELREAFRLYDMEGNGYISTDVMREILAELDETLSSEDLDAMIDEIDADGSGTVDFEEFMGVMT [K11M],1.77 kcal/mol
18,ELREAFRLYDVEGNGYISTDVMREILAELDETLSSEDLDAMIDEIDADGSGTVDFEEFMGVMT [K11V],2.1 kcal/mol
19,ELREAFRLYDTEGNGYISTDVMREILAELDETLSSEDLDAMIDEIDADGSGTVDFEEFMGVMT [K11T],1.94 kcal/mol
20,ELREAFRLYGKEGNGYISTDVMREILAELDETLSSEDLDAMIDEIDADGSGTVDFEEFMGVMT [D10G],0.123 kcal/mol
21,ELREAFRLYVKEGNGYISTDVMREILAELDETLSSEDLDAMIDEIDADGSGTVDFEEFMGVMT [D10V],0.886 kcal/mol

row,Variant,folding stability dG
1,ELREAFRLYQKEGNGYISTDVMREILAELDETLSSEDLDAMIDEIDADGSGTVDFEEFMGVMT [D10Q],0.395 kcal/mol
2,ELREAFRLYHKEGNGYISTDVMREILAELDETLSSEDLDAMIDEIDADGSGTVDFEEFMGVMT [D10H],-0.087 kcal/mol
3,ELREAFRLYTKEGNGYISTDVMREILAELDETLSSEDLDAMIDEIDADGSGTVDFEEFMGVMT [D10T],0.563 kcal/mol
4,ELREAFRLYNKEGNGYISTDVMREILAELDETLSSEDLDAMIDEIDADGSGTVDFEEFMGVMT [D10N],-0.227 kcal/mol
5,ELREAFRLYWKEGNGYISTDVMREILAELDETLSSEDLDAMIDEIDADGSGTVDFEEFMGVMT [D10W],1.4 kcal/mol
6,ELREAFRLYCKEGNGYISTDVMREILAELDETLSSEDLDAMIDEIDADGSGTVDFEEFMGVMT [D10C],2.18 kcal/mol
7,ELREAFRLYAKEGNGYISTDVMREILAELDETLSSEDLDAMIDEIDADGSGTVDFEEFMGVMT [D10A],0.874 kcal/mol
8,ELREAFRLYYKEGNGYISTDVMREILAELDETLSSEDLDAMIDEIDADGSGTVDFEEFMGVMT [D10Y],1.15 kcal/mol
9,ELREAFRLYEKEGNGYISTDVMREILAELDETLSSEDLDAMIDEIDADGSGTVDFEEFMGVMT [D10E],0.386 kcal/mol
10,ELREAFRLYIKEGNGYISTDVMREILAELDETLSSEDLDAMIDEIDADGSGTVDFEEFMGVMT [D10I],1.21 kcal/mol
11,ELREAFRLYSKEGNGYISTDVMREILAELDETLSSEDLDAMIDEIDADGSGTVDFEEFMGVMT [D10S],0.55 kcal/mol
12,ELREAFRLYFKEGNGYISTDVMREILAELDETLSSEDLDAMIDEIDADGSGTVDFEEFMGVMT [D10F],1.66 kcal/mol
13,ELREAFRLYLKEGNGYISTDVMREILAELDETLSSEDLDAMIDEIDADGSGTVDFEEFMGVMT [D10L],1.26 kcal/mol
14,ELREAFRLYRKEGNGYISTDVMREILAELDETLSSEDLDAMIDEIDADGSGTVDFEEFMGVMT [D10R],-0.527 kcal/mol
15,ELREAFRLYMKEGNGYISTDVMREILAELDETLSSEDLDAMIDEIDADGSGTVDFEEFMGVMT [D10M],1.39 kcal/mol
16,ELREAFRDYDKEGNGYISTDVMREILAELDETLSSEDLDAMIDEIDADGSGTVDFEEFMGVMT [L8D],0.997 kcal/mol
17,ELREAFRQYDKEGNGYISTDVMREILAELDETLSSEDLDAMIDEIDADGSGTVDFEEFMGVMT [L8Q],2.05 kcal/mol
18,ELREAFRRYDKEGNGYISTDVMREILAELDETLSSEDLDAMIDEIDADGSGTVDFEEFMGVMT [L8R],2.38 kcal/mol
19,ELREAFRHYDKEGNGYISTDVMREILAELDETLSSEDLDAMIDEIDADGSGTVDFEEFMGVMT [L8H],2.01 kcal/mol
20,ELREAFRVYDKEGNGYISTDVMREILAELDETLSSEDLDAMIDEIDADGSGTVDFEEFMGVMT [L8V],2.07 kcal/mol
21,ELREAFRTYDKEGNGYISTDVMREILAELDETLSSEDLDAMIDEIDADGSGTVDFEEFMGVMT [L8T],1.94 kcal/mol

# Reference: the MegaScale stability set (Tsuboyama et al. 2023)
